Laboratory results: patent US20200199579A1, “Rapid Display Method in Translational Synthesis of Peptide” (PeptiDream Inc., priority 2009, published 2020)

Experiments:
TNF-α = target: T1, TNF-α (Homo sapiens, UniProt P01375); assay: Verification of mapping: recovery from a 100:1 EMP1SS / TNF-α-DW mixture by TNF-α pull-down, PCR and gel electrophoresis; type: binding; details: an21-Phe linker; mRNA or cDNA input; FIG. 6
T1 construct: made in house; host or cells: E. coli (co-expressed with biotin ligase BirA)
Protocol: This mixture was used to perform experiments similar to those described above, and the recovered DNA was amplified by PCR under the following conditions. That is, 20 μL of a reaction solution containing Taq polymerase and a test sample solution in PCR (taq-) buffer was prepared and reacted by temperature cycling of 30 cycles of {94° C. 40 sec, 61° C. 40 sec, 72° C. 40 sec} (with a slope of 0.5° C./sec from 61° C. to 72° C.) using a thermal cycler. 2.5 μL of the reaction product solution was separated by electrophoresis using a gel consisting of TAE (40 mM Tris-acetate, 1 mM EDTA) and 3% agarose (low electroendosmosis, NACALAI TESQUE, INC.), and electrophoretograms were obtained under a transilluminator after staining with ethidium bromide.
A band derived from the mRNA encoding TNF-α-DW is observed at the position of about 90 bp, while a band derived from the mRNA encoding the control EMP1SS is observed at the position of about 150 bp. When the an21-ACCA linker containing no peptidyl acceptor was used, only a band derived from the mRNA of EMP1SS was observed, reflecting the molar ratio of the two types of cDNA in the initial mixture.

[1] = target: T2, Human tumor necrosis factor-alpha (TNF-α) (Homo sapiens, UniProt P01375); assay: Yield of peptide-mRNA complexes presenting TNF-α-DW, recovered with biotinylated TNF-α on streptavidin beads and quantified by real-time PCR; details: peptide aptamer TNF-α-DW
T2 construct: made in house; host or cells: E. coli (co-expressed with biotin ligase BirA)
Protocol: In the case where an mRNA is preliminarily prepared by transcription reaction and then translated into a peptide and the resulting peptide is fused to a linker, a peptide-mRNA complex was prepared by the following procedure. First, 4 mM sodium acetate, pH 5.0 and mRNA were mixed in 1:3, and the mixture was heated on a thermoblock at 95° C. for 1 minute and then allowed to stand at room temperature for 5 min. A 25 μM linker solution dissolved in 1 mM sodium acetate was added and the mixture was allowed to stand for 10 minutes to form an mRNA-linker complex. To this were added the other components of the translation system and the mixture was incubated in a constant-temperature water bath (NT-202D, Nissin Scientific Corporation) at 37° C. for 30 minutes, then at room temperature for 12 min, and 0.1 M EDTA (ethylenediaminetetraacetic acid, molecular biology grade, NACALAI TESQUE, INC.) adjusted to pH 7.5 was added at a final concentration of 20 mM, and the mixture was further incubated in the constant-temperature water bath at 37° C. for 30 minutes.
In the case where a cDNA is added to a reaction solution and transcription, translation and fusion to a linker are performed in this reaction solution, a peptide-mRNA complex was prepared by the following procedure. […]

T2 sequence (P01375 with tags, fused parts or gaps): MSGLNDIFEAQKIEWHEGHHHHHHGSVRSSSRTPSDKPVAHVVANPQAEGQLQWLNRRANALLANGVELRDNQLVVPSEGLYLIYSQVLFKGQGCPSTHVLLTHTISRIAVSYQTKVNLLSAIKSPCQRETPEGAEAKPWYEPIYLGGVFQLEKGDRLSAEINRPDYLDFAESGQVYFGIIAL
T1 sequence (P01375 with tags, fused parts or gaps): as above

Substance | binding of the presented peptide to the target protein (TNF-α) | yield of peptide-mRNA complexes ([1]; cDNA added to the reaction solution (one-pot transcription/translation), FIG. 5) | yield of peptide-mRNA complexes ([1]; mRNA added to the translation reaction solution, FIG. 4)
XAAGGTYSSHFGPLTWVSKPQGGAA, wherein X is Ac-D-Trp [EMP1SS, reference compound] | does not bind to the target | – | –
XQRLHCLYLKH (X: Ac-D-Trp) [TNF-α-DW] | binds to the target protein | – | –
5′-CCCGCCTCCCGCCCCCCGTCC-[SPC18]5-A*-C*-C*-A*-3′ [an21-ACCA] | – | 0.007% | 0.015%
